Experimental data: paper PMC3302758

Columns and labels:
[1] = target: 14-3-3β (UniProt P31946); assay: CFTR IP, 14-3-3β immunoblot; settings: reference: basal cells; sites S660,S670,S700,S712,S737,S753,S768,S795,S813
[2] = target: 14-3-3ε (UniProt P62258); assay: CFTR IP, 14-3-3ε immunoblot; settings: reference: basal cells; sites S660,S670,S700,S712,S737,S753,S768,S795,S813

fold change [1]: 2.3 fold | fold change [2]: 3.1 fold
Substance: CFTR (from UniProt P13569) forskolin 10 µM, 15 min
